Assay results from the nanobody polyreactivity screen of Harvey et al. (2022).

Experiment: yeast display, Sf9 membrane polyspecificity reagent, FACS + sequencing; frameworks hold sequencing errors
Summary of the method: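 Galactose-induced (36–48 hours) yeast carrying a synthetic nanobody display library were exposed to 10% biotinylated, detergent-solubilized Sf9 membrane reagent at 4 °C for 1 hour. FACS followed streptavidin microbead enrichment, using low and high (top ~1%) gates for expression (anti-HA) and reagent binding (streptavidin). Colony PCR, MiSeq 2 × 250 sequencing and CDR-length filtering followed. Labels for polyreactivity reflect the gate of origin.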
For “QVQLVESGGGLVQAGASLRLSCAASGSIFGGYAMGWYRQAPGKERELVAAISRSGRTNYADSVKGRFTISRDNAKNTVYLQMNSLKPEDTAVYYCAVDKRYGRVVGRDYDYWGQGTQVTVSS”, the “polyreactivity (PSR sort gate)” value was “high polyreactivity”. With “QVQLVESGGGLVQAGASLRLSCAASGSISKSYAMGWYRQAPGKERELVAAISWRGGSTYADSVKGRFTISRDNAKNTVYLQMNSLKPEDTAVYYCAATNYGTFWGGQSERYDYWGQGTQLTVSS” the “polyreactivity (PSR sort gate)” value was “low polyreactivity”. In the case of “QVQLVESGGGLVQAGASLRLSCAASGSNSKSYAMGWYRPAPGKERELVAAISWRGGSTYADSVKGRFTNSRDNAKNTVYFQMNSQKPVDTAVYYWAATNYGTFWGGQSERYDYWGQGTQVTVSS”, the “polyreactivity (PSR sort gate)” value is reported as “low polyreactivity”. In the case of “QVQLVESGGGLVQAGASLRLSCAASGSTFDRNVMGWYRQAPGKERELVAAISRVSSTNYADSVKGRFTISRDNAKNTVYLQMNSLKPEDTAVYYCAADRAGSIMNYWGQGTQVTVSS”, the “polyreactivity (PSR sort gate)” value is reported as “low polyreactivity”. In the case of “QVQLVESGGGLVQAGASLRLSCAASGSTFGSYTMGWYRQAPWKERELVAAINWTGGNTYYADSVKGRFTISRDYAKNTVYLQMNSLKPEDTAVYYCAAAFYIYGVEGDYWGQGTQVTVSS”, the “polyreactivity (PSR sort gate)” value is reported as “low polyreactivity”. For “QVQLVESGGGLVQAGASLRLSCAASGSTFKYYTMGWYRQAPGKERELVAAISFSGARTYYADSVKGRFTISRDNAKNTVYLQMNSLKPEDTAVYYCAKDRQYYYWGQGTQVTVSS”, the “polyreactivity (PSR sort gate)” value was “high polyreactivity”. In the case of “QVQLVESGGGLVQAGASLRLSCAASGYIYPKYGMGWYIQAPGKERELVAAITGSGGSTYYADSVMGRITISRDNAKNTVYLHMNSLKPEDTAVYYCAKRSWIEYDYWGQGTQVTVSS”, the “polyreactivity (PSR sort gate)” value is reported as “low polyreactivity”. In the case of “QVQLVESGGGLVQAGASLRLSCAASVIIFKIYAMGWYRQAPGKERELVAAITRSGTRTYYADSVKGRFTISRDNAKNTVYLQMNSLKPEDTAVYYCNAYTTLAYDLDYWGQGTQVTVSS”, the “polyreactivity (PSR sort gate)” value is reported as “high polyreactivity”. For “QVQLVESGGGLVQAGASLSLSCAASGRTFGGNAMGWYRQAPGKEREFVAAISRSGTSTYYADSVKGRFTISRDNAKNTVYFQMNSLKPEATAVYYCAALNYLKFAHKYDYWGQGTQVTVSS”, the “polyreactivity (PSR sort gate)” value was “low polyreactivity”. For “QVQLVESGGGLVQAGCILRLSCASSGIIFSYAMGWYRQAPGKESELVAAISGRDGSTYYADSVKGRFTISRDNAKNTVYLQMNSLKPEDTAVYYCAKRISYLPVEMDYWGHGTQVTVSS”, the “polyreactivity (PSR sort gate)” value was “low polyreactivity”. With “QVQLVESGGGLVQAGCRLRLSCAASGRTFFPYAMGWYRQAPGKERELVAAITTGDITNYADSVKGRFTISRDNAKNTVYLQMNSLKPEDTAVYYCAARGYASWSYGGYPLKLDYWGQGTQVTVSS” the “polyreactivity (PSR sort gate)” value was “low polyreactivity”. With “QVQLVESGGGLVQAGCSLRISCADSGRTFDEYAMGWYRQAPGKERELVAAISGSAGSTYYADSVKGRFTISRDNAKNSVYLQMNSLKPEDTAVYYCNAEVYGELYYWGQGTQVTVSS” the “polyreactivity (PSR sort gate)” value was “low polyreactivity”. With “QVQLVESGGGLVQAGCSLRLICAASGIIFRRYAMGWYRQAPGKERELVAAISSSGGSTYYADSVKGRFTISRDNAKNTVYLQMNSLKPEDTAVYYCNAVTSVQARPRNYYYWGQGTQVTVSS” the “polyreactivity (PSR sort gate)” value was “high polyreactivity”. With “QVQLVESGGGLVQAGCSLRLICAASGYIFVIYAMGWNRQAPGKERELVAAISSSGAGTYYADSVKGRFTISRDNAKNTVYLQMNSLKPEDTAVYYCAASESAVFDGYDYWGQGTQVTVSS” the “polyreactivity (PSR sort gate)” value was “high polyreactivity”. With “QVQLVESGGGLVQAGCSLRLIFAASGSIFIGYAMGWYRQAPGKERELVATITNGGSTYYADSVKGRFTISRDNAKNTVYLQMNSLKPEDSAVYYCNKPTYQWGQGTQVTVSS” the “polyreactivity (PSR sort gate)” value was “high polyreactivity”. For “QVQLVESGGGLVQAGCSLRLSCAASGFIFTTYAMGWYRQEPGKERELVAAISGRGGTTYYADSVKGRFTISLDTAKNTVYLQMNSLKPEDTAVYYCAADGYPGDDYWGQGTQVTVSS”, the “polyreactivity (PSR sort gate)” value was “high polyreactivity”. For “QVQLVESGGGLVQAGCSLRLSCAASGFIFYWYAMVWKRQAPGKERELVAAISYDTGSTYYADSVKGRFTISRDKAKNSVYLPMNSLKPEDTAVYYCAADVYYKYYYWGQGSQVTVSS”, the “polyreactivity (PSR sort gate)” value was “high polyreactivity”. With “QVQLVESGGGLVQAGCSLRLSCAASGFTFLNNAMGWSRQAPGKEREMVAAISQSGTSTYYADSVKGRFTISRDNAKNTVYLQMNSLKPEDTAVYYCAAEDTYPHDYSGGLEYDYWGQGTQVTVSS” the “polyreactivity (PSR sort gate)” value was “low polyreactivity”. For “QVQLVESGGGLVQAGCSLRLSCAASGFTFQHNAMGWYRQAPGKERELVAAISRGGSTNYADSVKGRFTISRDNAKNTVYLQMNSLKPEDTAVYYCAAYDWRVLWGYDYWGQGTQVTVSS”, the “polyreactivity (PSR sort gate)” value was “low polyreactivity”. For “QVQLVESGGGLVQAGCSLRLSCAASGGIFSAYVMGWYRQAPGKERELVAAITRRGGATYYADSVKGRFTISRDNAKNTVYLQMNSLKPEDTAVYYCAADDQYYTEYYYWGQGTQVTVSS”, the “polyreactivity (PSR sort gate)” value was “high polyreactivity”. With “QVQLVESGGGLVQAGCSLRLSCAASGIIFRSYAMGWYRQAPGKERELVAAITRSGGSTYADSVKGRFTISRDNAKNTVYLQMNSLKPEDTAVYYCAADRYSGWDYRRDYWGHGTQVTVSS” the “polyreactivity (PSR sort gate)” value was “low polyreactivity”. In the case of “QVQLVESGGGLVQAGCSLRLSCAASGITFANYAMGWYRPAPGKVRELVAAINWSGGITYADSVKGRFTISRDNAKNTVYLQMHSLKPEDTAVYYCNPYYPDYAKYDYWGQGTQVTVSS”, the “polyreactivity (PSR sort gate)” value is reported as “low polyreactivity”. In the case of “QVQLVESGGGLVQAGCSLRLSCAASGITFNFYAMGWYRQAPGKERELVAAITSSGASTNYADSVKGRFTISRDNAKNTVYLQMNSLYPEDTAVYYCNAQRSRHSLYPVNELYYWGQGTQVTVTS”, the “polyreactivity (PSR sort gate)” value is reported as “low polyreactivity”. For “QVQLVESGGGLVQAGCSLRLSCAASGLIFYTYAMGWYRQAPGKEREFVAAISRRGGSTYYADSVKGRFTISRDNAKNTVYLQMNSLKPEYTAVYYCNARYTYPRPYEEYYYWGQGTQVTVSS”, the “polyreactivity (PSR sort gate)” value was “high polyreactivity”. For “QVQLVESGGGLVQAGCSLRLSCAASGLTFYHYTMGWYRQEPGKERDLVAAISRRGGYTYYADSVKGRFTISRDNAKNTVYLQMNSLKPEDTAVYYCAARALRYSRDFDYWGQGTQVTVSS”, the “polyreactivity (PSR sort gate)” value was “high polyreactivity”. With “QVQLVESGGGLVQAGCSLRLSCAASGNSFPSYAMGWYRQAPGKARELVAAITTGGRTYYADSVKGRFTISRDNAKNTVYLQMNSLNPEDTAVYYCAADWGVRYPWYRYYYWGQATQVTVSS” the “polyreactivity (PSR sort gate)” value was “high polyreactivity”. For “QVQLVESGGGLVQAGCSLRLSCAASGRIFDNYVMGWYRQAPGQERELVAAISSGGGTYYADSVTGRFTISRDNAKNTVYLQMNSLKPEDTAVYYCAKRRVYDRSFGRYDYWGQGTQVTVSS”, the “polyreactivity (PSR sort gate)” value was “low polyreactivity”. For “QVQLVESGGGLVQAGCSLRLSCAASGRIFGGYAMGWYRQAPGKERELVAAISSGGNTKYADSVKGRFTISRDNAKNTVYLQMNSLKPEDSAVYYCAAKFAQPDYRYDYWGQGTQVSVSS”, the “polyreactivity (PSR sort gate)” value was “high polyreactivity”. With “QVQLVESGGGLVQAGCSLRLSCAASGRIFRYYAMGWYRQAPGKERELVAAISWSGGSTYYADSVKGRFTISRDNAKNTVYLQMNSLKPEYTAVYYCAARYSLKGGRYDYWGQGTQVTVSS” the “polyreactivity (PSR sort gate)” value was “high polyreactivity”. In the case of “QVQLVESGGGLVQAGCSLRLSCAASGRIFYRNAMGWYRQAPGKERELVAGITRGGSTNYADSVKGRFTISRDNAKNNVYLQLNSLKPEDTAVYYCAKAIPAKFYSEAGYDYWGQGTQVTVSS”, the “polyreactivity (PSR sort gate)” value is reported as “low polyreactivity”. In the case of “QVQLVESGGGLVQAGCSLRLSCAASGRIFYYYAMGWYRQAPGKERELVADITWSGGSTYYADSVKGRFTISRDNAKNTVYLQMNSLKPEDTAVYYCNAVYFNYLLEYDYWGQGTQVTVSS”, the “polyreactivity (PSR sort gate)” value is reported as “high polyreactivity”. With “QVQLVESGGGLVQAGCSLRLSCAASGRTDFYTMGWYRQAPGKEMELVAAITSTGRTYYADSVKGRFTISRDNAKNTVYLKMNSLKPEDTAVYFCAAVWRYKGLLLPSYYYWGQGTQVTVSS” the “polyreactivity (PSR sort gate)” value was “high polyreactivity”. With “QVQLVESGGGLVQAGCSLRLSCAASGRTIAYNAMGWYRQAPGKERELVAAISWSGGSTYYADSVKGRFTISRDNAKNTVYLQMNSMKPEDSAVYYCAKRFGQYRYPYDYWGQGNQVTVSS” the “polyreactivity (PSR sort gate)” value was “high polyreactivity”. In the case of “QVQLVESGGGLVQAGCSLRLSCAASGSIFAYYDMGWYRQAPGKERELVAAITTRDDDTYYADSVKGRFTISRDNAKNTVYLLLNSLKPEDTAVYYCAAAWWDYGNGKYDYWGQGTQVTVSS”, the “polyreactivity (PSR sort gate)” value is reported as “low polyreactivity”. In the case of “QVQLVESGGGLVQAGCSLRLSCAASGSIFGYNDMGWNRQAPGKERELVATITWGGGRTRYADSVKGRFTISRDNAKNTVYLQINCLKPEDIAVYYCAADKRSYSYVRPPRNHEDYWGQGSQVTVSS”, the “polyreactivity (PSR sort gate)” value is reported as “low polyreactivity”. In the case of “QVQLVESGGGLVQAGCSLRLSCAASGSIFSSYAMGWYRQAPGKERELVAAITGSGGSTDYADSVKGRFTISRDNAKNTVYLQMNSLKPEDTAVYYCAARPFWPGNSYYYRYYYWGQGTQVTVSS”, the “polyreactivity (PSR sort gate)” value is reported as “low polyreactivity”. In the case of “QVQLVESGGGLVQAGCSLRLSCAASGSNFEENAMGWYRQAPGKESELVAAITIGGRTNYADSVKGRFTISRDNAKNTVYLQMNSLKPEDTAVYYCAADLSSNKYWRFWTRYYYWGQGTQVTVSS”, the “polyreactivity (PSR sort gate)” value is reported as “low polyreactivity”. In the case of “QVQLVESGGGLVQAGCSLRLSCAASGSTFSYIAMGWYRQAPGKERELVAAITSGSSTNYADSVKGRFTISRDNAKYTVYLQMNSLKPEDTAVSYCAADGYQDKYYWLETWVGYWGHGTQVTVSS”, the “polyreactivity (PSR sort gate)” value is reported as “low polyreactivity”. In the case of “QVQLVESGGGLVQAGCSLRLSCAASGSTIYTYTMGWYRQAPGKERELVAAISSSGGDTYYADSVKGRFTISRDNAKNTVYLQMNSLKPEDTAVYYWDALGAFPSLEFDYWGQGTHVTVSS”, the “polyreactivity (PSR sort gate)” value is reported as “low polyreactivity”. For “QVQLVESGGGLVQAGCSLRLSCAASGSTLFWYDMGWYRQAPGKERELVAAINWTGGSTYADSVKGRFTISRDNAKNTVYLQMNSLKPEDTAVYYCNADEYWASGYDPYDYWGQGTQVTVSS”, the “polyreactivity (PSR sort gate)” value was “low polyreactivity”. In the case of “QVQLVESGGGLVQAGCSLRLSCAASGSTSAYYVMGWNRQAPGKARELVAAIDFSGDSTYYADSVKGRFTISRDNAKNTVYLQMNSLKPEDTAVYYCAAELFYYSSLVTYEYWGQGTQVTVSS”, the “polyreactivity (PSR sort gate)” value is reported as “high polyreactivity”.
